Data published in patent US7303752B2, “Hookworm vaccine” (The George Washington University, priority 2001, dated 2007).

B1: Ay-ASP-2: A. ceylanicum secreted protein 2, SEQ ID NO: 58; Pichia pastoris expressed (protein, listed as Ancylostoma ceylanicum)
chain: VLVPLLVLLAVSVDANSVRCGNNGMTDEARQKFLDMHNGYRSQVAKGQAKDALSGNAPKAAKMKKMVYDCGVESTAMQNAKKCVFTHSHMKGLGENIWMTTAREMDKVKSAEQASQGWFSELAEYGVGPENKLTMQLWNRPNTQIGHYTQMVWQDTYKLGCYVEWCSSMTYGVCQYSPQGNMMNSIIYEKGNPCTQDSDCGSNARCTADKALCIVHG
B2: Ay-ASP-1: A. ceylanicum secreted protein 1, SEQ ID NO: 56; Pichia pastoris expressed (protein, listed as Ancylostoma ceylanicum)
chain: FSPVVVISVVLTVAFCDASPVKASFGCSNSGITDSDRQAFLDFHNNARRRVAQGVEDNKSGKLNPAKNMYKLDWDCEMEQKLQDAIQSCPGGFAGIQGVAQNIISWSGSGGFPNPSEKINSTLASWWGGAKNNGVASDNKYTGGGLYAFSNMVFSETTKLGCAYKVCGTKLTLSCYNGIGYMTGAPMWETGQACKAGADCTTFKNSGCEDGLCTKGADVPETNQQCPSNTGMTDSVRDTFLSLHNEFRSSVARGLEPDALGGNAPKASKMLKMVYDCEVEASAIRHGNKCVYQHSHGDERPGLGENIYKTSIVKFEKNKAAKQASQLWWNELKEFGVGPSNMLTDAWNRPNMQIGHYTQMAWESTYKLGCAVIFCNDFTFGVCQYGPGGNYMNHLIYTIGQPCSECEATATCSVTEGLCSAP
B3: Ay-MTP-1: A. ceylanicum astacin protease antigen, SEQ ID NO: 60 (protein, listed as Ancylostoma ceylanicum)
chain: MRVFLLVLLLAICASAGFFDTKLGEKIKKTLGKIKAALNGTLLMKIREKFIALREKIKAKLKLSPARKALLGEIMKHIIKIKKDKIQEKGDSIEEINSKSAIGELLYQGDIVLTNKQAQEIVDIEGDENDRGKRQAFRDRNYPRTLWSKGVYYYFHGNATPEVRSVFTKGARLWMKDTCIDFFESNSAPDRIRVFKEQGCWSYVGRIGGQQDLSLGKGCESVGTAAHEIGHAIGFYHTHSRHDRDNFITFNAQNVKPDWLDQFTKQTPATNENYGITYDYGSIMHYGANSASANGQPSMVPFDPKYVETLGSPIISFYELLMINKPYECTKNCDPNTSAQCKMGGFPHPRDCGRCICPSGYGGQLCDQKPSGCGSILQATAQYQNLHDKRGNEAAGQRPREDMDFCYYWITAPQGSRIEIKIADLSRGAAVDGCQYWGVEIKTHADQRLTGYRFCAPEDVGRTLVSNSNIVPIITYNFYATTVDIQYRIVGGNVGGPRPQPQPNSNCVDNEQCATLIRTKNFCQSRSFTESVKRGLCPKACGFCR

Tested on: A. ceylanicum
Assay: Hamster vaccine trial Ham V-IV with Quil A, oral challenge with 100 A. ceylanicum L3
Assay type: in vivo, Syrian hamster
Settings: 10 hamsters per group; Quil A control 48.9
Method: Brief Outline of Study Sections: Purpose bred Syrian hamsters are randomized into eight groups. Seven groups will receive candidate vaccines: ASP-1, ASP-2, MTP, and Irradiated larvae. One group receives only the adjuvant (Quil A) as experimental control. Each animal's specific antibody response is evaluated by direct ELISA using serum taken prior to the infective challenge. […] Quantitative ova counts, used to evaluate worm burden, are made from fecal samples collected twice after larval challenge. Also, hemoglobin levels will be tested to detect anemia caused by the blood loss during adult hookworm infection. The final report will evaluate the data and provide conclusions regarding each vaccine's effectiveness both in terms of worm burden and blood loss.
Test and Control Identification: The antigens are ASP-1, ASP-2, and MTP. The antigen-adjuvant combinations will be ASP-1+Quil A, ASP-2+Quil A, MTP+Quil A, ASP-1+ASP-2+Quil A, ASP-2+MTP+Quil A and ASP-1+MTP+Quil A. One group, which receives irradiated L3 serve as the positive control. The negative control group will receive only Quil A. Details about the antigen and the adjuvants will be included in the study records when they become available.
The test articles are diluted to provide a dose of 0.025 mg of antigen in 200 ul of antigen-adjuvant mixture per animal per injection. All injections will be performed intramuscularly (i.m). The prescribed volume dose information is recorded by Dr. Ghosh. Fresh preparation of antigens will be made the day of injection.
Administration of Test and Control Articles: The vaccines and adjuvant are administered intramuscularly (IM) three (3) times beginning when the hamsters are 28±2 days old. The vaccines are boosted at 21 days (3 weeks) intervals.
Challenge Infection: Ancylostoma ceylanicum larvae are cultured from the eggs collected in the feces of infected hamsters by qualified technicians in the Dr. Hotez lab. All hookworms in the infective challenge are approximately equal age (10±5 days). The species identity of the infective larva dose is validated, using PCR DNA amplification and specific oligonucleotide primers. All hamsters are infected by orally with the same dose of 100+/−10 3rd stage larvae of A. celyanicumfs. Larval challenge occurs on the same day for all hamsters (at age 82±2 days). Clinical Observations: The hamsters are observed daily and are weighed at least every 7 days post-challenge. Hamsters that develop signs of moderate to severe anemia, or develop a loss of body weight greater than 15% are observed more frequently. Prior to larvae infection and at least one time every 7-10 days, blood samples are collected from all hamsters. Blood withdrawal should be approximately equal in amount from all hamsters and at this time, the stool will be checked for blood.
A pre-vaccination blood sample will be examined for Hemoglobin; a sample of serum will be frozen. A hemoglobin test is performed 6-10 days and 12-18 days post-challenge. Samples of serum will be collected from each hamster; pre-immune, after 2 boosts, and after larval challenge. These samples will be labeled with unique identifiers (nature of the specimen, study-hamster number and collection date) and frozen for possible future analysis.
Quantitative Egg Counts (QEC): One week following parasite dosing, fecal examination for ova begins and will be repeated once a week until the study is terminated. The ova count method will be performed according to the SOP, which is a modification of the McMaster technique (Veterinary Clinical Pathology, 6th ed., 1994, page 9-10). The test will be performed the same way each time in order to quantitate the ova count. Fecal specimens from the hamsters will be identified by the hamster study number and the unique hamster identification number. The ova are counted in a McMaster chamber under a binocular microscope and recorded. […]

First: B1
Second: B2
The “Adult Hookworms, Mean” value of the first is higher: 33.2 for the first, 30.9 for the second.

B3 was tested, and the “Adult Hookworms, Mean” value was 35.3.

Same assay, conditions: Quil A control 0.45

First: B1
Second: B3
The “Spleen weights, Median” value of the first is higher: 0.47 gr for the first, 0.45 gr for the second.

For B2, the “Spleen weights, Median” value was 0.48 (0.48) ± 0.10 gr.

Same assay, conditions: Quil A control 0.47

Compared with B1, B3 is lower in “Spleen weights, Mean” value: 0.44 gr for the first, 0.42 gr for the second.

In the case of B2, the “Spleen weights, Mean” value is reported as 0.48 (0.48) ± 0.10 gr.

Same assay, conditions: Quil A control 53.0

Going from B1 to B2, the “Adult Hookworms, Median” value falls from 39.5 to 36.0.

For B3, the “Adult Hookworms, Median” value was 40.0.

Same assay, conditions: hamster, in vivo

First: B1
Second: B2
The “Percent reduction (EPG) relative to Quil A” value of the first is lower: 47.2% for the first, 59.0% for the second.

For B3, the “Percent reduction (EPG) relative to Quil A” value was 42.7%.

First: B1
Second: B2
The “Percentage Hb Increase Relative to control (QuilA)” value of the first is higher: 55.2% for the first, 32.7% for the second.

With B3 the “Percentage Hb Increase Relative to control (QuilA)” value was 59.9%.

First: B1
Second: B2
The “Percentage Reduction (adult hookworms) Relative to Quil A” value of the first is lower: 32.1% for the first, 36.8% for the second.

For B3, the “Percentage Reduction (adult hookworms) Relative to Quil A” value was 27.8%.

Same assay, conditions: hookworm eggs per gram, two cages per group

First: B1
Second: B2
The “EPG Mean ± SD” value of the first is higher: 1175.0 ± 176.7 for the first, 912.5 ± 17.7 for the second.

B3 was tested, and the “EPG Mean ± SD” value was 1275.0 ± 777.8.

Same assay, conditions: necropsy relative to time of infection; Quil A control 7.8

Compared with B1, B2 is lower in “Body Weight % Reduction, Median” value: 4.9% for the first, 4.4% for the second.

In the case of B3, the “Body Weight % Reduction, Median” value is reported as 5.4%.

Same assay, conditions: necropsy relative to time of infection; Quil A control 7.9

Compared with B1, B2 is lower in “Body Weight % Reduction, Mean” value: 4.2% for the first, 3.4% for the second.

For B3, the “Body Weight % Reduction, Mean” value was 4.0%.

Same assay, conditions: necropsy relative to time of infection; minus = decrease; Quil A −29.7

Compared with B1, B2 is lower in “Hb % change, Mean” value: −9.2% for the first, −13.3% for the second.

B3 was tested, and the “Hb % change, Mean” value was −3.5%.

Same assay, conditions: necropsy relative to time of infection; minus = decrease; Quil A −32.5

Going from B1 to B2, the “Hb % change, Median” value falls from −13.3% to −20.0%.

For B3, the “Hb % change, Median” value was −11.9%.
